Assay [1] deals with FADD^DD (UniProt Q13158).
Assay [2] has as its target FADD^DD (UniProt Q13158). The assay can be described thus: ITC.
The target in assay [3] is T1, FADD^DD (UniProt Q13158 97-181).
T1 sequence: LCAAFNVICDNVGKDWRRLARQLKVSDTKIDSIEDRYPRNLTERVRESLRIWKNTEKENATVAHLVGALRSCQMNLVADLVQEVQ
The assay can be described thus: cell-based or functional assay.

Assay [4] concerns the target T1, FADD^DD. The assay can be described thus: ITC. For orientation: ITC needs no label: the signal is the heat of the interaction.

In general, Kd refers to the constant that tells how readily two partners part at equilibrium. Low readings indicate higher affinity, high ones lower affinity. Consider NleB1^EHEC (enzyme), for which the Km for FADD^DD, glycosylation kinetics in the assay with FADD^DD [1] was found to be 13 µM. This molecule showed a Kd with FADD^DD [2] of 200 nM.

B1: S286Y^SseK1 (enzyme)
chain: MIPPLNRYVPALSKNELVKTVTNRDIQFTSFNGKDYPLCFLDEKTPLLFQWFERNPARFGKNDIPIINTEKNPYLNNIIKAATIEKERLIGIFVDGDFFPGQKDAFSKLEYDYENIKVIYRNDIDFSMYDKKLSEIYMENISKQESMPEEKRDCHLLQLLKKELSDIQEGNDSLIKSYLLDKGHGWFDFYRNMAMLKAGQLFLEADKVGCYDLSTNSGCIYLDADMIITEKLGGIYIPDGIAVHVERIDGRASMENGIIAVDRNNHPALLAGLEIMHTKFDADPYYDGVCNGIRKHFNYSLNEDYNSFCDFIEFKHDNIIMNTSQFTQSSWARHVQ
In the case of B1, the “Km for FADD^DD, glycosylation kinetics, fold worse than that of NleB1^EHEC” value with FADD^DD [3] amounted to 4.4 fold. Moreover, the “fold by which the Kd of NleB1^EHEC is better” value in the assay with FADD^DD [4] is approximately 6 fold.

B2: N302Y^SseK2 (enzyme)
chain: MARFNAAFTRIKIMFSRIRGLISCQSNTQTIAPTLSPPSSGHVSFAGIDYPLLPLNHQTPLVFQWFERNPDRFGQNEIPIINTQKNPYLNNIINAAIIEKERIIGIFVDGDFSKGQRKALGKLEQNYRNIKVIYNSDLNYSMYDKKLTTIYLENITKLEAQSASERDEVLLNGVKKSLEDVLKNNPEETLISSHNKDKGHLWFDFYRNLFLLKGSDAFLEAGKPGCHHLQPGGGCIYLDADMLLTDKLGTLYLPDGIAIHVSRKDNHVSLENGIIAVNRSEHPALIKGLEIMHSKPYGDPYYDWLSKGLRHYFDGSHIQDYDAFCDFIEFKHENIIMNTSSLTASSWR
For B2, in the assay with FADD^DD [4], the “fold by which the Kd of NleB1^EHEC is better” value is approximately 472 fold.

The values above are taken from article PMC8457375 (Chemical Science, 2021).
